# Laboratory results from patent publication US20160264653A1 (published 2016).
# T1: EFNA4 antigen (human, UniProt P52798 26-170, limits assumed)
# T1 construct: also called ephrin-A4 antigen
# T1 sequence: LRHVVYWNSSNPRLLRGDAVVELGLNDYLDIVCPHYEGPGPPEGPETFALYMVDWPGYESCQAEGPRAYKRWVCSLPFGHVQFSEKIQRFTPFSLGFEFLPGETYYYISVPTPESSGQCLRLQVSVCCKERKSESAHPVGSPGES
# T2: mouse ephrin-A4-His (mouse, UniProt O08542 26-175, limits assumed)
# T2 construct: also called murine EFNA4-His; not shown: His tag
# T2 sequence (looked up): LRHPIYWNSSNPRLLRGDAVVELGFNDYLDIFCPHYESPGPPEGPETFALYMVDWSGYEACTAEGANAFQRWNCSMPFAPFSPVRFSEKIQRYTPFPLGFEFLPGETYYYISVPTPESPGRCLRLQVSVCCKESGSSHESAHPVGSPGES
# T3: human ephrin-A4-His (human, UniProt P52798 26-170, limits assumed)
# T3 construct: also called hEFNA4-ECD-His; EFNA4 His fusion protein; not shown: His tag
# T3 sequence: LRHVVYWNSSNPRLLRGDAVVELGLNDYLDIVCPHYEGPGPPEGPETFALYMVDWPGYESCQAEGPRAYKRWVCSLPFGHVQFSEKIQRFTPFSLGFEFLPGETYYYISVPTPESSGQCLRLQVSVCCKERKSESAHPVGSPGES
# T4: EphB4-Fc (human, UniProt P54760 16-539, limits assumed)
# T4 construct: extracellular domain; not shown: human IgG1 Fc
# T4 sequence (looked up): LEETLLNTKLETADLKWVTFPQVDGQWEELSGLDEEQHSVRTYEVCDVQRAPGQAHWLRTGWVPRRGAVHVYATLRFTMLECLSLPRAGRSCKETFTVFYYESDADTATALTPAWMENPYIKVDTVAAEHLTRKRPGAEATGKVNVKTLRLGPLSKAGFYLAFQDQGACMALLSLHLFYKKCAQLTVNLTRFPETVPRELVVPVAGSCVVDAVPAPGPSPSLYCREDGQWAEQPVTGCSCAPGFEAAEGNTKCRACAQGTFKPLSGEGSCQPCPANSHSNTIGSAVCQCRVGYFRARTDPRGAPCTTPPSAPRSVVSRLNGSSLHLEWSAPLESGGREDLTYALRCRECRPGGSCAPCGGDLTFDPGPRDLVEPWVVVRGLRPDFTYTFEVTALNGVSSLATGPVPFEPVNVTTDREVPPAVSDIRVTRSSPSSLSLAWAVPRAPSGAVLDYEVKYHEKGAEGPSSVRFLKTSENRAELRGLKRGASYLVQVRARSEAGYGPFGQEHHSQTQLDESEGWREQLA
# B1: human ephrin-A4 ligand (EFNA4) expressed on the cell surface (ligand)
# chain: LRHVVYWNSSNPRLLRGDAVVELGLNDYLDIVCPHYEGPGPPEGPETFALYMVDWPGYESCQAEGPRAYKRWVCSLPFGHVQFSEKIQRFTPFSLGFEFLPGETYYYISVPTPESSGQCLRLQVSVCCKERKSESAHPVGSPGES
# notes: GPI-anchored; Cells used: HEK293T.hEFNA4 (retroviral overexpression), parental HEK293T (low level), Jurkat, Z138, K562, PC3, NTX tumor cells; also called hEFNA4; HEK293T.hEFNA4 cells
# What was measured:
# EFNA4 antigen = molecular target: T1, EFNA4 antigen; test: SPR (Biacore); fixed antibody, antigen concentration series; 1:1 Langmuir model
# Procedure: Finally, the affinity of selected modulators was measured by surface plasmon resonance (Biacore System, GE Healthcare). Based on a standard antigen concentration series and using a 1:1 Langmuir binding model, the Kd of the antibody binding to antigen and the kinetic constants kₒₙ and koff were determined.
# mouse ephrin-A4-His = molecular target: T2, mouse ephrin-A4-His; test: ELISA; titrated ephrin-A4-His coated, 0.5 ug/ml hSC4.15 (FIG. 13C)
# Procedure: (§1) More particularly titrated amounts of human and mouse ephrin-A4-His were coated on high protein binding 96-well plates in PBS at 4° C. for 16 hours. […] The ELISA was developed as described above using a donkey-anti human IgG polyclonal antibody conjugated to horseradish peroxidase (Jackson Immuno Research).
# human ephrin-A4-His = molecular target: T3, human ephrin-A4-His; test: as above
# Procedure: as §1
# [1] = molecular target: B1; test: cell-based or functional assay
# EphB4-Fc = molecular target: T4, EphB4-Fc; test: flow cytometry; EphB-Fc on HEK293T.hEFNA4 cells (FIG. 20B)
# Procedure: After washing twice, samples were resuspended in staining buffer containing 2 μg/ml DAPI and analyzed on a FACS Canto II (BD Biosciences) under standard conditions using the HTS attachment.
# [2] = molecular target: T5, Fc portion of human IgG alone (human, UniProt P01857-1 100-330 = IgG part, limits assumed); test: flow cytometry on Jurkat cells (known to express EFNA) (FIG. 12A)
# T5 construct: domain: Fc; also called human IgG Fcgamma1 fragment
binder,measurement,setting,value
"hSC4.47 (antibody, human IgG1, V domains shown, also called humanized SC4.47) VH: QVQLVQSGAEVKKPGASVKVSCKASGYTFTYFYMNWVRQAPGQGLEWVGQINPNNGGTAYAQKFQGRVTMTRDTSTSTVYMELSSLRSEDTAVYYCARWVGTHYFDYWGQGTTLTVSS VL: EIVLTQSPATLSLSPGERATLSCRASQSVSSSSYTYIHWYQQKPGQAPRLLINFASNLESGIPARFSGSGSGTDFTLTISSLEPEDFAVYYCQHSWEIPPTFGGGTKLEIK",Kd,EFNA4 antigen,< 0.1 nM
"hSC4.15 (antibody, V domains shown, also called humanized SC4.15) VH: EVQLVESGGGLVKPGGSLRLSCAASGFTFSTYGMSWVRQAPGKGLEWVATISSGGTYTYYPDSVKGRFKISRDNAKNSLYLQMNSLRAEDTAVYYCTRHDPNDGYYFLFAYWGQGTLVTVSS VL: EIVLTQSPGTLSLSPGERATLSCKASQSVGNNVAWYQQKPGQAPRLLIYYASNRYTGIPDRFSGSGSGTDFTLTISRLEPEDFAVYYCQQHYSSPLTFGAGTKLEIK",binding result,mouse ephrin-A4-His,binds
same,binding result,human ephrin-A4-His,binds
same,"EC50 (pM) of killing, saporin-Fab in vitro cytotoxicity assay, HEK293T.hEFNA4 cells",[1],13.7 pM
same,"EC50 (pM) of killing, saporin-Fab in vitro cytotoxicity assay, PC3 cells",[1],5.4 pM
B1,binding result,EphB4-Fc,no binding
same,binding result,[2],no binding
